This note sets out measurements from patent publication US20240166738A1 (Alector, published 2024).

Experiment [1] concerns the target T1, GST-TMEM106B (truncated, comprising amino acids 122-210 of SEQ ID NO:1) (human, UniProt Q9NUM4 122-210).
T1 construct: GST written first by the name only; also called truncated GST-TMEM106B fusion protein; GST-TMEM106B polypeptide fusion; not shown: GST fusion partner
The experiment can be described thus: pre-mix epitope binning, antibody immobilized on chip array.

Another experiment deals with human TMEM106B (human, UniProt Q9NUM4 2-274). The experiment can be described thus: cell-based or functional assay.
For % Protection from CPE in this document: test concentration or dose not given here.

B1: TM-8 (antibody, V domains shown)
VH: QIQLVQSGPELKKPGETVKISCKASGYTFTDYPMHWVKQAPGKGFKWMGVIYTDTGEPKYAEVFKGRFAFSLETSASTAYLQINNLKNEDTATYFCVRRLAYWGQGTLVTVSA
VL: DIKMTQSPSSMYASLGERVTITCKASQDINSYLSWFQQKPGKSPKTLIFRANRLVDGVPSRFSGSGSGQDYSLTISSLEYEDMGIYYCLQYDEFPLTFGAGTKLEMK
notes: mouse hybridoma mAb
Consider B1, for which, in experiment [1], the binding result is “no binding (tested: 55 nM antigen (2 ug/mL))”. Besides, in the experiment with human TMEM106B, the “% Protection from CPE” value worked out at 3.8%.

B2: TM-52 (antibody, V domains shown)
VH: QVQLQQPGAELVKPGASVKLSCKASGYTFTNYWMHWVKQRPGQGLDWIGNIDPSDSETHYNQKFKDKATLTVDKVSSTAYMQLSSLTSEDSAVYYCARRGYYGRSPFAYWGQGTLVTVSA
VL: ENVLTQSPAIMSASPGEKVTMTCSASSSVSYMHWYQQKSNTSPKLWIYDTSKLASGVPGRFSGSGSGNSYSLTISSAEAEDVATYYCFQGSGYPLTFGAGTKLELK
notes: mouse hybridoma mAb
On to B2, for which the binding result in experiment [1] is “no binding (tested: 55 nM antigen (2 ug/mL))”. Also, the “% Protection from CPE” value with human TMEM106B was determined as 3.6%.

B3: TM-71 (antibody, V domains shown)
VH: EVQLVESGGALVKPGGSLKLSCAASGFTFSNYAMSWVRQTPEKRLEWVATIGYGGSYSYYPDSVKGRFTISRDNAKNTLYLQMSSLRSEDTALYYCARQDSNYEGVWFAYWGQGTLVTVSS
VL: DIVMTQAAPSVPVTPGESVSISCRSSKSLLHTNGNTYLFWFIQRPGQSPHLLIYRKSNLASGVPDRFSGSGSGTAFTLRISRVEAEDVGVYYCMQHLEYPFTFGSGTKLEIK
notes: mouse hybridoma mAb
Take B3: the binding result in experiment [1] is given as “no binding (tested: 55 nM antigen (2 ug/mL))”. In addition, the “% Protection from CPE” value with human TMEM106B is 3.2%.
